# B1: cyclo-CKLIIF (SEQ ID NO 2) (peptide)
# peptide: CKLIIF
# modifications: cyclic peptide (first amino acid joined to the last)
# B2: cyclo-CRVIIF (SEQ ID NO 4) (peptide)
# peptide: CRVIIF
# modifications: cyclic peptide (cyclo-, first amino acid joined to the last)
# notes: also called Compound C
# B3: CAVIIF (peptide)
# peptide: CAVIIF
# notes: also called alanine scan peptide of CRVIIF, position 2 (R to A)
# B4: CRVIIA (peptide)
# peptide: CRVIIA
# notes: also called alanine scan peptide of CRVIIF, position 6 (F to A)
# B5: fluorescently labelled cyclo-CRVIIF (fluor-CRVIIF) (SEQ ID NO 4) (peptide)
# peptide: cyclo(C(FITC‑maleimide)RVIIF)
# modifications: not fully specified; printed as fluor-CRVIIF
# notes: also called FITC-CRVIIF
# Columns and labels:
# [1] = biological target: T1, Trx-1α (thioredoxin-tagged HIF-1α 1-350, bHLH-PASA-PASB) (UniProt Q16665 1-350); assay: thermal shift assay, 1 mM peptide
# T1 construct: range 1-350; not shown: Thioredoxin-His6 tag of vector pET32
# Description: (§1) Thermal denaturation of HIF proteins was performed in 20 μL reactions in triplicate using a Bio-Rad CFX Connect Real-Time System. Proteins were used at either 5 μM (Trx-1α, Trx-2α and GST-1β) or 15 μM (His-tagged PASB domains) in HIF assay buffer, with 10 mM DTT and SYPRO orange dye (Life Technologies) at a final concentration of 8×(relative to 5000×stock), and supplemented with either DMSO or compound dissolved in DMSO at the stated concentrations. The reaction plate was assembled on ice, then transferred to the pre-chilled thermal cycler, held at 10° C. for 5 min (heated lid, 105° C.), then the temperature ramped to 95° C. Fluorescence was recorded at 0.5° C. increments, holding for 5 sec at each temperature. Data were plotted using GraphPad Prism 6, and melting temperatures calculated using the first derivative method in which the peak (i.e. the steepest transition between data points) represents the point at which 50% of the protein sample is denatured. Errors are quoted as the inherent error associated with the first derivative of the data, i.e. ±0.25° C. for Tₘ values and ±0.5° C. for ΔTₘ values.
# [2] = biological target: T2, Trx-2α (thioredoxin-tagged HIF-2α 1-360, bHLH-PASA-PASB) (UniProt Q99814 1-360); assay: thermal shift assay, 1 mM peptide
# T2 construct: range 1-360; not shown: Thioredoxin-His6 tag of vector pET32
# Description: as §1
# [3] = biological target: T3, 1α PASB (HIF-1α PASB domain, 238-349) (UniProt Q16665 238-349, labelled with NT-647-NHS dye in MST); assay: thermal shift assay, 1 mM peptide
# T3 construct: range 238-349; not shown: His6 tag of vector pET28, then Met
# Description: as §1
# [4] = biological target: T4, 2α PASB (HIF-2α PASB domain, 240-350) (UniProt Q99814 240-350, labelled with NT-647-NHS dye in MST; 15N (and 13C 15N) labelled in NMR); assay: thermal shift assay, 1 mM peptide
# T4 construct: range 240-350; also called PAS B domain of HIF-2α; not shown: His6 tag of vector pET28, then Met
# Description: as §1
# [5] = biological target: T5, 1β PASB (HIF-1β PASB domain, 356-474) (UniProt P27540 356-474); assay: thermal shift assay, 1 mM peptide
# T5 construct: range 356-474; not shown: His6 tag of vector pET28
# Description: as §1
# [6] = biological target: T1, Trx-1α (thioredoxin-tagged HIF-1α …); assay: ELISA, Trx-1α on Ni plate, inhibition of GST-1β binding
# Description: (§2) IC₅₀ values for the compound=3.7 μM/8.8 μM for 1α/2α.
# (§3) 25 μL of His-tagged HIF-α protein (either Trx-1α, Trx-2α, 1α PASB, or 2α PASB) at 0.1 μM in HIF assay buffer were added to individual wells of a Pierce Ni²⁺-coated 96-well plate (Thermo) in triplicate. The plate was rocked gently at room temperature for 1 hr, before washing with 3×200 μL assay buffer (5 min incubation per wash). 25 μL of compounds and/or DMSO at the stated concentrations were added to the plate and allowed to equilibrate for 30 min prior to the addition of 25 μL of GST-1β at 0.2 μM in assay buffer for 1 hr. For conditions in which no compound or DMSO were used, GST-1β was added as a 0.1 μM solution. After incubation with GST-1β, the wells were washed with 3×200 μL assay buffer then 1×200 μL PBS. The wells were then incubated with 100 μL mouse α-GST antibody (Thermo, MS-707-P) at a 1/1000 dilution in PBS supplemented with 0.1% Tween-20 (PBST) and 2% non-fat powdered milk (Marvel) for 1 hr, followed by 3×200 μL washed with PBS. 100 μL of secondary HRP-conjugated α-mouse antibody (GE Healthcare) was added at a 1/6000 dilution in 2% milk/PBST for 1 hr, then washed with 3×200 μL PBS. […] Absorbance was read at 450 nm using a Tecan Infinite M200 Pro plate reader. Data were fitted and IC₅₀ values determined by non-linear regression using GraphPad Prism 6.
# [7] = biological target: T2, Trx-2α (thioredoxin-tagged HIF-2α …); assay: ELISA, Trx-2α on Ni plate, inhibition of GST-1β binding
# Description: as §2, §3
# [8] = biological target: T3, 1α PASB (HIF-1α PASB domain, 238-349); assay: MST, peptide titrated into fluorescently labelled 1α PASB
# Description: (§4) Microscale thermophoresis (MST) was performed to determine Kd of peptide binding to fluorescently labelled HIF-1α/2α PASB domains.
# (§5) 0.5 mL of 1α or 2α PASB protein stocks in HIF storage/assay buffer were dialysed against 1 L of MST labelling buffer (100 mM NaHCO₃ pH 8, 150 mM NaCl and 5% glycerol) for 1.5 hr at 4° C., then against 1 L of fresh labelling buffer at 4° C. overnight. 100 μL of each dialysed protein diluted to 10 μM were incubated with 100 μL of 30 μM NT-647-NHS dye (NanoTemper protein labelling kit) for 20 min in the dark, then exchanged into 650 μL HIF assay buffer supplemented with 0.05% Tween-20 using the supplied gravity flow purification columns. A dilution series of cyclo-CRVIIF (SEQ ID NO 4) or alanine scan analogues (in HIF assay buffer, 10% DMSO) was mixed with equal volumes of labelled 1α PASB or 2α PASB at 100 nM and allowed to equilibrate for 10 min. Samples were loaded into hydrophilic capillaries and, after optimising the power, MST was performed using a Monolith […] instrument (NanoTemper). Data were analysed using NT Analysis Software using the Temperature Jump analysis mode.
# [9] = biological target: T4, 2α PASB (HIF-2α PASB domain, 240-350); assay: MST, peptide titrated into fluorescently labelled 2α PASB
# Description: as §4, §5
# [10] = biological target: T3, 1α PASB (HIF-1α PASB domain, 238-349); assay: ELISA, 1α PASB on Ni plate, inhibition of GST-1β binding
# Description: (§6) ELISA assays were conducted using 1α/2α PASB domains.
# as §3
# [11] = biological target: T4, 2α PASB (HIF-2α PASB domain, 240-350); assay: ELISA, 2α PASB on Ni plate, inhibition of GST-1β binding
# Description: as §6, §3
# [12] = biological target: T1, Trx-1α (thioredoxin-tagged HIF-1α …); assay: competition ELISA: His-tagged Trx-1α on Ni plate, peptide titrated, binding of GST-1β (blocked partner) detected with anti-GST, A450
# Description: as §2, §3
# [13] = biological target: T2, Trx-2α (thioredoxin-tagged HIF-2α …); assay: competition ELISA: His-tagged Trx-2α on Ni plate, peptide titrated, binding of GST-1β (blocked partner) detected with anti-GST, A450
# Description: as §2, §3
# [14] = biological target: T3, 1α PASB (HIF-1α PASB domain, 238-349); assay: competition ELISA: 1α PASB on Ni plate, peptide titrated, blocked partner GST-1β; the value stands in the panel without a name, the ELISA fits give IC50
# Description: as §3
# [15] = biological target: T4, 2α PASB (HIF-2α PASB domain, 240-350); assay: competition ELISA: 2α PASB on Ni plate, peptide titrated, blocked partner GST-1β; the value stands in the panel without a name, the ELISA fits give IC50
# Description: as §3
# [16] = biological target: T3, 1α PASB (HIF-1α PASB domain, 238-349); assay: competition ELISA: 1α PASB on Ni plate, peptide titrated, blocked partner GST-1β; the value stands in the panel without a name, the ELISA fits give IC50; the fall is only partial
# Description: as §3
# [17] = biological target: T4, 2α PASB (HIF-2α PASB domain, 240-350); assay: competition ELISA: 2α PASB on Ni plate, peptide titrated, blocked partner GST-1β; the value stands in the panel without a name, the ELISA fits give IC50; the fall is only partial
# Description: as §3
# [18] = biological target: T6, HIF-2α (construct not given) (UniProt Q99814 1-360, limits assumed); assay: HIF-2 ELISA, inhibition of HIF-2α/HIF-1β dimerisation
# T6 construct: also called HIF-2 ELISA
# [19] = biological target: T4, 2α PASB (HIF-2α PASB domain, 240-350); assay: fluorescence polarisation, 2α PASB titrated into 2 µM fluor-CRVIIF
# Description: Kd values were determined by fluorescence polarisation (FP) using fluorescently labelled cyclo-CRVIIF (fluor-CRVIIF) (SEQ ID NO 4) dissolved in DMSO as the probe. In each condition, the concentration of the probe was kept constant (2 μM, 1% DMSO) whilst proteins were titrated. Reactions were performed in HIF assay buffer with the addition of 0.1% Triton X-100. Samples were assembled in black 96-well plates (40 μL/well, in triplicate) and allowed to equilibrate for 2 hr in the dark. Plates were read using a POLARstar Omega plate reader (BMG Labtech) at Ex: 490 nm, Em: 520 nm, with target gain set to 300 mP. Polarisation data were plotted and Kd values calculated by non-linear regression using GraphPad Prism 6.
# T2 sequence (Q99814 1-360): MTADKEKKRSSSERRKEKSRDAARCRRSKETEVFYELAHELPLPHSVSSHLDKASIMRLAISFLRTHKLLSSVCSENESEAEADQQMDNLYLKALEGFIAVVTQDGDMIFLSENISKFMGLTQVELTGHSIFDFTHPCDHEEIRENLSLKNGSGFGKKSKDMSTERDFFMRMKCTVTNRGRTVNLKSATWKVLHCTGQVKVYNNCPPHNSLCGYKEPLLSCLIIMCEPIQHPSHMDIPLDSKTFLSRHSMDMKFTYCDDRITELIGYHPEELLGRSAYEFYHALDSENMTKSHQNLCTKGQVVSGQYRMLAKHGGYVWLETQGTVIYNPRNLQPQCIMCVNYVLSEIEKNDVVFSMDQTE
# T4 sequence (Q99814 240-350): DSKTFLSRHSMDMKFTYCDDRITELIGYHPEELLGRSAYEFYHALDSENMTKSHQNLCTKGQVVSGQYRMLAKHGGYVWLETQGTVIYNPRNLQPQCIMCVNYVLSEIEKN
# T5 sequence (P27540 356-474): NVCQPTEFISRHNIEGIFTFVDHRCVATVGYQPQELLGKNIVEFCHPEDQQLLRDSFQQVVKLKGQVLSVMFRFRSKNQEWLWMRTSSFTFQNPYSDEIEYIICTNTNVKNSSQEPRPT
# T6 sequence (Q99814 1-360 limits assumed): as the sequence (Q99814 1-360) above
Binder,ΔTm [1] [° C.],ΔTm [2] [° C.],ΔTm [3] [° C.],ΔTm [4] [° C.],ΔTm [5] [° C.],Kd [8] [µM],Kd [9] [µM],further results
B1,-1.5,-2.5,-1,-2.5,-0.5,2.5,4.6,IC50 [6]: 3.7 µM; IC50 [7]: 8.8 µM
B2,-1,-2,-1.5,-2.5,-0.5,158,133,IC50 [10]: 5.4 µM; IC50 [11]: 15.2 µM; IC50 [12]: 115 µM; IC50 [13]: 244 µM
B3,,,,,,,,IC50 [14]: 112 µM; IC50 [15]: 22.3 µM
B4,,,,,,,,IC50 [16]: 110 µM; IC50 [17]: 37.1 µM
B5,,,,,,,,Activity as measured by a HIF-2 ELISA [18]: 1.46 µM; Kd [19]: 18.5 µM
